Test results from paper PMC10359615, “Mechanistic insight into AP-endonuclease 1 cleavage of abasic sites at stalled replication fork mimics”.

B1: Cy3-Rec-PTJ (mixed)
DNA 1: ACTCCTTCCGCACGTAATTTTTGACGCAC
DNA 2: TGACTCTTCTGCGTTCGCTGATGCGCCGACGGGTGCGTCAAAAATTACGTGCGGAAGGAGT
modifications: THF 7 nt from the junction

Legend:
[1] = target: RPA (RPA1/RPA2/RPA3 heterotrimer) (human, UniProt P27694;P15927;P35244 1-616;1-270;1-121); assay: mass photometry; 4:1 RPA:DNA; a single RPA per DNA; EMSA: 50 mM Tris pH 8, 1 mM EDTA, 0.2 mg/ml BSA, 1 mM DTT, 5% sucrose, room temperature, 5 nM DNA; FRET: 20 mM HEPES pH 7.5, 150 mM KCl, 5 mM MgCl2, 5 mM CaCl2, 1 mM DTT, ionic strength 200 mM with KCl, 23 C; conditions: protein: recombinant; copies: 1;1;1
[2] = target: APE1Dead (catalytically dead APE1) (human, UniProt P27695 1-318, D210N;E96Q); assay: competition; FRET; DNA pre-saturated with 75 nM Cy5-RPA; APE1Dead completely exchanges for RPA; EMSA: 50 mM Tris pH 8, 1 mM EDTA, 0.2 mg/ml BSA, 1 mM DTT, 5% sucrose, room temperature, 5 nM DNA; FRET: 20 mM HEPES pH 7.5, 150 mM KCl, 5 mM MgCl2, 5 mM CaCl2, 1 mM DTT, ionic strength 200 mM with KCl, 23 C; conditions: protein: recombinant; label: Cy3 at primer 3' end; 3' recessed primer-template junction, 5' ssDNA overhang 33 nt
Chain of APE1Dead (catalytically dead APE1) (P27695 whole entry E96Q/D210N): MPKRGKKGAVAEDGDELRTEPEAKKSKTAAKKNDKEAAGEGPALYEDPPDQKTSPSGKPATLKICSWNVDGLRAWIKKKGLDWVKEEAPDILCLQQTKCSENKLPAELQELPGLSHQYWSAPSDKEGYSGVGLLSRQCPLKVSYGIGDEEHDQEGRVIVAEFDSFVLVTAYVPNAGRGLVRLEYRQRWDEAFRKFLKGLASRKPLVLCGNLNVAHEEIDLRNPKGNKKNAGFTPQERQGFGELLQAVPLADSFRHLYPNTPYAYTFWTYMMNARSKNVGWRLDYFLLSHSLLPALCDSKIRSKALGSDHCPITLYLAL

Chain of RPA (RPA1/RPA2/RPA3 heterotrimer) (P27694 whole entry, chain 1 of 3): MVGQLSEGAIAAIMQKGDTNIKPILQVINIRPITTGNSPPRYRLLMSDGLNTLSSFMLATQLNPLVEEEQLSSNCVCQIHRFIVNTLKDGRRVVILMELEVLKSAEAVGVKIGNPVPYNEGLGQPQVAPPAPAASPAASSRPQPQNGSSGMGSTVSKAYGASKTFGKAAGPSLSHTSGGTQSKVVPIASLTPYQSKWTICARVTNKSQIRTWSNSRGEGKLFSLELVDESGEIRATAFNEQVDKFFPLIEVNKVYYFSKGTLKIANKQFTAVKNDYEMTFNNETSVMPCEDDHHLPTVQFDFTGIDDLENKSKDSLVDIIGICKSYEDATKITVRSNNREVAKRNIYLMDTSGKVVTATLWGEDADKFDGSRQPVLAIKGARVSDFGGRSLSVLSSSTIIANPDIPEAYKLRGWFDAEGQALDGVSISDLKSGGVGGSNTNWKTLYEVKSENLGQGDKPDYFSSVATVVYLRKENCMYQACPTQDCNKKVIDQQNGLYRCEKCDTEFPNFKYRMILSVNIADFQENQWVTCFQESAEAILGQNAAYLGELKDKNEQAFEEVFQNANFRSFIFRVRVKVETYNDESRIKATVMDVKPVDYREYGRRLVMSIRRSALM
Chain of RPA (RPA1/RPA2/RPA3 heterotrimer) (P15927 whole entry, chain 2 of 3): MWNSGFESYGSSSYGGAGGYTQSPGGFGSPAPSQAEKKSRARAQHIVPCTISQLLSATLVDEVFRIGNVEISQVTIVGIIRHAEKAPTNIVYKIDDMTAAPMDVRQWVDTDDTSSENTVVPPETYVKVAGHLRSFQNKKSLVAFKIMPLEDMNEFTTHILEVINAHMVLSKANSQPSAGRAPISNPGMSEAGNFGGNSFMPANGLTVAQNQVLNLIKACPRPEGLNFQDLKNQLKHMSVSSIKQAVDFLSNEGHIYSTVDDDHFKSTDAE
Chain of RPA (RPA1/RPA2/RPA3 heterotrimer) (P35244 whole entry, chain 3 of 3): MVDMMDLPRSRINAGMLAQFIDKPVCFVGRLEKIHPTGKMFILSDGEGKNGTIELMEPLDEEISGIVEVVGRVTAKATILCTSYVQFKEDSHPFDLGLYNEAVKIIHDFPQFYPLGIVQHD

| Binder | binding result [1] | binding result [2] |
| --- | --- | --- |
| TTTTTTTTTTTTTTTTTTTTTTTTTTTTTTTTTTT (ssDNA) [(dT)35] | binds | – |
| B1 | – | binds |
